In doi:10.1101/2021.10.11.463969:

Biological target: Measles virus matrix protein (MeV-M) fused to a twin StrepII tag (Measles virus) (UniProt Q9W850)
Assay: SEC-MALS

Q: For “Measles virus matrix protein (MeV-M) fused to a twin StrepII tag (from UniProt Q9W850 1-335) (natural protein)”, which stoichiometry N is on record?
A: Its stoichiometry N is 2.
